Consider one substance from patent US20090202619A1, “POLYOXYALKYLENE CHAIN-CONTAINING LIPID DERIVATIVE AND LIPID FILM STRUCTURE CONTAINING SUCH DERIVATIVE” (THE UNIVERSITY OF TOKUSHIMA, priority 2005, published 2009).

On the set-up of this series: species or system male ddY mouse. Conditions: mouse, in vivo, iv. The text has this:
Using the methylpolyoxyethylenecarbamyl-glycyl-glycyl-glycyl-distearoylphosphadylethanolamine (DSPE-GGG-PEG2000) obtained in Example 5 or the methylpolyoxyethylenecarbamyl-distearoylphosphadylethanolamine (DSPE-PEG2000), egg yolk phosphatidylcholine (EPC) or hydrogenated egg yolk phosphatidylcholine (HEPC), and cholesterol, a composition in the blending ratios shown in Table 2 below was weighed in an egg plant flask, and the liposome solutions of Example 9 and Comparative Examples 4 to 5 were obtained by the same method as (1) above but using doxorubicin in place of the fluorescent dye. To monitor the blood kinetics of the liposome per se, 40 μCi/μmol ^3H-cholesterylhexadecyl ether (^3H-CHE) was added. […]
Next, each liposome was administered to a male ddY mouse from the tail vein (25 mg lipid/kg), blood was collected 2 minutes, 30 minutes, 1 hour, 2 hours, 4 hours, 8 hours, and 24 hours after the administration, the radioactivity in blood was measured to determine the concentration of the liposome per se, and doxorubicin was measured by the fluorescence method to determine the doxorubicin concentration at that time point. Because the doxorubicin that has leaked from the liposome is quickly distributed in various tissues, doxorubicin concentrations determined by this method are considered to reflect the amount of doxorubicin retained in the liposome.

Consider “methylpolyoxyethylenecarbamyl-glycyl-glycyl-glycyl-distearoylphosphadylethanolamine [Example 4]”, for which the “cleavage of the lipid derivative in blood” value was “minimally cleaved in blood” and the “influence on the drug-releasing characteristics of liposome” value was “did not influence the drug-releasing characteristics of liposome”.
